# Measurements taken from the DeepSol protein solubility set.
# Experiment: soluble on expression in E. coli; label from the status in PepcDB or PDB records
row,Sequence,soluble on expression in E. coli
1,GMTGKISALDLASGELSEPTKAYFAKCEEKLGLVPNVLKAYAFDDKKLRAFTDIYNDLMLGESGLSKLDREMIAVAVSSINHCYYCLTAHGAAVRQLSGDPALGEMLVMNFRAADLSPRQTAMLEFAVKLTEEPAKIVEADRAALRKAGFSDRDIWDIASTAAFFNMSNRVAAAIDMRPNDEYHAMAR,soluble
2,MSLRETLKTIAETLNVTHTTVSNVFNRPEKVSPELREKILAYAESINYHGPAGAGRFLRTGKCGTLGVIFNDNLSYVFSDRHDIALMRGIAEECEKNGINIALMPLKTNNALKKRMMGALVDGYILNATYNNDEVVQAALTSGLPVITTDIKLQNFTCVSIDDGAAMQAICHHLLAAGHKKFGIVSFPVKRLPGELTSLAEFSTDYDNGVAFGRISACITALSDAGIDLHTSYVAEQPHSETGGEKAAKALLAKEPGISAIICLSDRFAFGVYQFCQDHNIPVPGQIAITGFDDIDIQDPPVGLTTIRQPTVLKGREAARALISGQLDNDISLDFELVVRDSAEGHHHHHH,soluble
3,MNEKTINEQYAYIRTLLEEKRLKEALMQLESLLWQCPDWDLRTRLEQLQTSYKYMLEYMRQGANDPERWNVYRKLIADTWEIADRSRLLMLDNASSRYYHEVRRTPRPESLSAYTLKKLLHMLESFNDDLAVSGLLSDEKMDEVLKRHEETLKYMFLQTWTNSAWTPEEEEDAQSMLTSELLPVNDLCLFISAVTLSLMECFDLRKIMWLLDAYRHPDVNAGQRALVGVIFIFHIYKNRLSLYNDLVKRVDLMDEISPFKEDVARIYHQMLLCQETEKIDKKMREEIIPEMLKNVSSMRNMRFGFEENEDENDDKNPDWADAFEQSGLGDKLREMNELQLEGADVYMSTFAALKSYPFFREVQNWFYPFSKQQSDVIKQLKQEGNEKNTLLDLILQSGFFSNSDKYSLFFTIRQLPKAQQDMMLSQLGEQQVAELTEKSSAETMKKFNERPGTVSNQYLHDLYRFFKLSVRRHEFRDIFKEKLDLHHIPALSNVLYSEDILFPIADFYLKKERWNEAIEVYEEMETIGALQERGAEYYQKLGYALQKSKKYAEAIGAYLKADTLKPDNIWNNRHLAICYRLNRNYQAALSYYKKVEEATPEDTNVIFHIGSCLAELGQYEEAANYFFKLDFIESNCIKAWRGIGWCSFISRKYEQAMKYYEKIIEQKPLAIDYMNAGHVAWTMGDIQKAAALYGKSITANGNRERFLEMFRKDEEALLKQGIQEEDIPLMLDLL,not soluble
4,MGSDKIHHHHHHMVDVEEKSQEVEYVDPTVNRVPNYEVSEKAFLLTQSKVSIEQRKEAAEFVLAKIKEEEMAPYYKYLCEEYLVNNGQSDLEHDEKSDSLNEWIKFDQELYNELCKKNESKIKELNEKIQKLEEDDEGELEQAQAWINLGEYYAQIGDKDNAEKTLGKSLSKAISTGAKIDVMLTIARLGFFYNDQLYVKEKLEAVNSMIEKGGDWERRNRYKTYYGIHCLAVRNFKEAAKLLVDSLATFTSIELTSYESIATYASVTGLFTLERTDLKSKVIDSPELLSLISTTAALQSISSLTISLYASDYASYFPYLLETYANVLIPCKYLNRHADFFVREMRRKVYAQLLESYKTLSLKSMASAFGVSVAFLDNDLGKFIPNKQLNCVIDRVNGIVETNRPDNKNAQYHLLVKQGDGLLTKLQKYGAAVRLTGSDRV,not soluble
5,MKNIKEKGSQALKITATVFILAVICMSSAASAANLHVDPEAEEGYTTIQAAVDAANAGDTIFVSPGTYVENLKIDKQVRIWSDSRNPENTIVRPSDPAESPVEITGERVTFSGFGVEDSEKAGILLSGATSCFINNNRAQNSKYGILLQDAESNNINGNVITLNEAGLRLESSRSNTIQDNLIAYNYGPGISLEESSRNIFFNNYFKNAENIEENAANADNTWQSTLTVKRNLIRGPYIGGNFWADIEGTGYSETCEDKNSNGICDASYTLNGGGSDNSPLFPKVPSAVTALENKLDAEAYELGMETRGVEVNETENPAGEQTGENGPEGEENKTAETEASENGTPAPGIGFAIMAAGAAYFLKRRKAAALEHHHHHH,not soluble
6,MSKVLELAKELGAEVIQTHTSWVLLLKDVVYKIKKPVNFGFLDYSTLEKRKEMCYKEVELNRRLCPWVYIGVVPISEVKGKWVIENDENVVEYAVKMRRIPDEAILSNRLDKTTEEDLKKVAKVVADFHVRAKRVDEFGKMEVMKYNTDENFAQTEKYIGITISKEDYDFIKRKTNEFYEKHADIFEKRIKEGRIRDGHGDIRTEHVAFLEEGVCIFDCIEFNDRFRYGDVLNDMCFLSMELEYFGREYLARAYEEEYRRISKDPDFDLMLPFFKCYRAYVRGKVNSFLLDDPNLTQEEKEKAKERATKFFKLARTYAEMIK,not soluble
7,DPAGLLDLRQGMFAQLVAQNVLLIDGPLSWYSDPGLAGVSLTGGLSYKEDTKELVVAKAGVYYVFFQMELRRVVAGEGSGSVSLALHLMPLRSAAGAAALALTVDLPPASSEARNSAFGFQGRLLHLSAGQRLGVHLHTEARARHAWQLTQGATVLGLFRVTPEIPA,soluble
8,RADTLIYMTVNPKTNTTDMVSIPRDTYTKIIGKGTMDKINHSYAFGGTQMTVDTVENFLDVPVDYFVKVNMESFRDVVDTLGGITVNSTFAFSYDGYSFGKGEITLNGKEALAYTRMRKEDPRGDFGRQDRQRQVIQGIINKGAN,not soluble
9,MEAEKKKLSIPPKGIRAIIEAIRLGEIIKPSQYAKREAFKKHDVEEAWLNRVLTMIFYDIMKKQGLIDKVIKEIVGVTPLILDPWLRAALRVAVDIALFHDPSSQTIKNLRWKASDFISSRTHPYVGMYFWDLLDKIFEYKPNPKNELEELEWKYLAPSWLIERVKGILGDETEDFFRSVNKRHEWISIRVNTLKANVEEVIGELEEDGVEVVRSERVPTILKIKGPYNFDTSSAFNEGKIIVQEEASAVASIVLDPKPGETVVDLAAAPGGKTTHLAELMKNKGKIYAFDVDKMRMKRLKDFVKRMGIKIVKPLVKDARKAPEIIGEEVADKVLLDAPCTSSGTIGKNPELRWRLREDKINEMSQLQRELLESAARLVKPGGRLLYTTCSIFKEENEKNIRWFLNVHPEFKLVPLKSPYDPGFLEGTMRAWPHRHSTIGFFYALLEKSK,soluble
10,SLKCYTCKEPMTSASCRTITRCKPEDTACMTTLVTVEAEYPFNQSPVVTRSCSSSCVATDPDSIGAAHLIFCCFRDLCNSEL,soluble
11,MGFLPISLLHLVIKLLKNSLRKSSRELKDNFYDEPYIVLSELRELKTYFSILSAIAAGKRKPSEMANEVDLEGRKIHSYIETLIRLGFVERDLLVARKEKRWLYIISDPMLMSWFSLVYPKRTEIEIGAMTIDDVKEILQRIFSFRFEQVSREFLIELNRKGNLPFRFTKIGRWWHKEEEIDIVALNEKEKKSLLIEIKWKELKEREIKGILNDLELEGWDKIYGVIAKKVQKKENLWERGFLIWDLEDLDVLAAALEHHHHHH,not soluble
12,MTINFRRNALQLSVAALFSSAFMANAADVPQVKVTVTDKQCEPMTITVNAGKTQFIIQNHSQKALEWEILKGVMVVEERENIAPGFSQKMTANLQPGEYDMTCGLLTNPKGKLIVKGEATADAAQSDALLSLGGAITAYKAYVMAETTQLVTDTKAFTDAIKAGDIEKAKALYAPTRQHYERIEPIAELFSDLDGSIDAREDDYEQKAADPKFTGFHRLEKALFGDNTTKGMDQYAEQLYTDVVDLQKRISELAFPPSKVVGGAAGLIEEVAASKISGEEDRYSHTDLWDFQANVEGSQKIVDLLRPQLQKANPELLAKVDANFKKVDTILAKYRTKDGFETYDKLTDADRNALKGPITALAEDLAQLRGVLGLD,soluble
13,MSLSVNDRDTSALRYFDFKDDEFVKPSPTEFNSWINREIVTKHHPHHNGYDEIYTKNQPQVIEGDFLYGDVRVKLANEWVSIYEYSLDSSSPSWNKIGRAVTDTNGHIKYNIPNNMKLSYGMHLIKLYVEGDGTSANMYIQVLDNTKKYVVFDMDGTLTTTDFEDVKQYAGEFFNSNYVAKMYPDVDNVVKYYASKGYGILYLTARPYWLSEESQTWLWKNGFPMGLLHTYTGGDVLLGEEAESFKAGYLNQLKSQGIEFDYGFGNEKTDVEAYSNIGIAKSNIFTIGKNRGIDGSVSIVSYTDYLKQLSGNEGHHHHHH,soluble
14,MKYVEVIMSIKDEGEFFMKVLQKNEFLQKSNETLASILDMLEKLPVVKFDEIEADKAVLVIIDMTNGFAKEGALKSDAVKELIPRICELSEICDRRKIRKIAFADCHTDESPEFDAYPKHCMKGTAESEIVDEIKNIGGYTLIEKNSTNGFLEEAFRKWLLENPDINTFILTGDCTDICVQQFAITLKAYFNMNNKRARVIVPLNAVDTYDLGVHDRNLMNVMAAYNMIINGVEVVRDIVE,not soluble
